Laboratory results published in the supplement of paper PMC10724198.
± gives the standard deviation of the averaged measurements.

Key:
[1] = tested on: Saccharomyces cerevisiae; assay: protein stability index of tFT-peptide fusion (C-terminal peptide) (PSI (0-1 scale)); higher = more stable (slower turnover); conditions: genetic background: wild type; temperature: 30 C
[2] = tested on: Saccharomyces cerevisiae; assay: as above
Experimental: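 MPS profiling in S. cerevisiae of the tFT-X12 degron library: putative degron peptides plus stable controls, 12 aa, fused to the C-terminus of a sfGFP-mCherry timer. Cells are FACS-sorted into 8 mCherry/sfGFP bins and deep-sequenced. PSI runs from 0 (unstable) to 1 (stable). Backgrounds are wild type, das1Δ and doa10Δ at 30 °C, and wild type, das1Δ, cdc34-1 and cdc53-1 at 37 °C; 2-3 technical replicates each.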

[3] = genetic background: cdc34-1, temperature: 37 C
[4] = genetic background: cdc53-1, temperature: 37 C
[5] = genetic background: das1 deletion, temperature: 30 C
[6] = genetic background: das1 deletion, temperature: 37 C
[7] = genetic background: doa10 deletion, temperature: 30 C
[8] = genetic background: wild type, temperature: 30 C
[9] = genetic background: wild type, temperature: 37 C
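Further: PSI is a weighted mean of sequencing reads over stability bins, variants kept only with over 10 reads, mCherry proximal and sfGFP distal, peptide attached via GGGS linker.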

Row | Sequence | protein stability index [1] | protein stability index [2, 3] | protein stability index [2, 4] | protein stability index [2, 5] | protein stability index [2, 6] | protein stability index [2, 7] | protein stability index [2, 8] | protein stability index [2, 9]
1 | KLKLWSIIKNNA | 0.385 ± 0.03 | 0.686 ± 0.06 | 0.749 ± 0.021 | 0.658 ± 0.022 | 0.745 ± 0.015 | 0.181 ± 0.008 | 0.25 ± 0.05 | 0.484 ± 0.053
2 | SYWNSSPKCGNW | 0.744 ± 0.0092 | 0.712 ± 0.064 | 0.76 ± 0.022 | 0.667 ± 0.021 | 0.7705 ± 0.0011 | 0.664 ± 0.039 | 0.681 ± 0.018 | 0.746 ± 0.011
3 | VFFPCRLLPLLF | 0.27 ± 0.023 | 0.517 ± 0.0066 | 0.585 ± 0.0073 | 0.479 ± 0.03 | 0.595 ± 0.026 | 0.1658 ± 0.0011 | 0.167 ± 0.014 | 0.286 ± 0.01
4 | CPYSNAFALCVF | 0.272 ± 0.034 | 0.153 ± 0.023 | 0.237 ± 0.022 | 0.22 ± 0.026 | 0.316 ± 0.0064 | 0.183 ± 0.0056 | 0.192 ± 0.019 | 0.253 ± 0.0037
5 | AKVFGLILVLLT | 0.334 ± 0.022 | 0.211 ± 0.026 | 0.349 ± 0.027 | 0.227 ± 0.023 | 0.407 ± 0.025 | 0.201 ± 0.017 | 0.205 ± 0.024 | 0.3711 ± 0.0013
6 | RFRFRRTCLYAT | 0.197 ± 0.0089 | 0.5745 ± 0.0034 | 0.588 ± 0.077 | 0.501 ± 0.028 | 0.655 ± 0.013 | 0.0931 ± 0.039 | 0.14 ± 0.0057 | 0.217 ± 0.033
7 | YHFRLLVTCCPC | 0.321 ± 0.0033 | 0.273 ± 0.0031 | 0.325 ± 0.0097 | 0.264 ± 0.016 | 0.38 ± 0.01 | 0.225 ± 0.0037 | 0.257 ± 0.0088 | 0.351 ± 0.015
8 | IFFFQFLWFCLS | 0.315 ± 0.038 | 0.296 ± 0.0037 | 0.295 ± 0.0059 | 0.305 ± 0.036 | 0.4186 ± 0.0012 | 0.243 ± 0.0098 | 0.206 ± 0.028 | 0.339 ± 0.015
9 | ERWSPWIVVFTN | 0.278 ± 0.029 | 0.464 ± 0.015 | 0.505 ± 0.012 | 0.421 ± 0.034 | 0.612 ± 0.024 | 0.173 ± 0.019 | 0.185 ± 0.022 | 0.278 ± 0.029
10 | GYLVFTLRWLRG | 0.461 ± 0.06 | 0.384 ± 0.038 | 0.491 ± 0.035 | 0.343 ± 0.027 | 0.507 ± 0.016 | 0.271 ± 0.026 | 0.305 ± 0.02 | 0.461 ± 0.0085
11 | VVVLLLVVWFCL | 0.379 ± 0.04 | 0.29 ± 0.014 | 0.4134 ± 0.0018 | 0.316 ± 0.027 | 0.428 ± 0.027 | 0.283 ± 0.0079 | 0.296 ± 0.025 | 0.391 ± 0.019
12 | GFVLMLLVRFEL | 0.419 ± 0.034 | 0.299 ± 0.037 | 0.416 ± 0.0054 | 0.309 ± 0.031 | 0.474 ± 0.015 | 0.328 ± 0.011 | 0.294 ± 0.046 | 0.465 ± 0.035
13 | GAVRRWGWVSFV | 0.331 ± 0.044 | 0.633 ± 0.052 | 0.7476 ± 0.0049 | 0.6425 ± 0.0039 | 0.744 ± 0.013 | 0.173 ± 0.0068 | 0.193 ± 0.0085 | 0.393 ± 0.004
14 | CSAVYNLHLLYS | 0.519 ± 0.076 | 0.696 ± 0.022 | 0.745 ± 0.012 | 0.626 ± 0.013 | 0.741 ± 0.011 | 0.469 ± 0.04 | 0.48 ± 0.022 | 0.6452 ± 0.0029
15 | YFLFRYIVITVF | 0.0865 ± 0.032 | 0.0486 ± 0.029 | 0.0672 ± 0.021 | 0.0711 ± 0.025 | 0.135 ± 0.026 | 0.0326 ± 0.015 | 0.0569 ± 0.012 | 0.06947 ± 0.00069
16 | LRALGPRIYRIS | 0.317 ± 0.035 | 0.661 ± 0.076 | 0.747 ± 0.025 | 0.645 ± 0.015 | 0.747 ± 0.016 | 0.194 ± 0.0089 | 0.199 ± 0.012 | 0.417 ± 0.016
17 | CVVFLWCGGCWV | 0.503 ± 0.076 | 0.475 ± 0.013 | 0.584 ± 0.0059 | 0.346 ± 0.044 | 0.725 ± 0.085 | 0.344 ± 0.023 | 0.331 ± 0.03 | 0.734 ± 0.041
18 | YFRKDYRKMAQH | 0.255 ± 0.15 | 0.594 ± 0.049 | 0.74478 ± 0.00072 | 0.669 ± 0.06 | 0.7429 ± 0.0026 | 0.17256 ± 0.00013 | 0.163 ± 0.046 | 0.453 ± 0.055
19 | LPSLRPPPCIRA | 0.48 ± 0.018 | 0.4441 ± 0.002 | 0.473 ± 0.013 | 0.36 ± 0.038 | 0.54 ± 0.02 | 0.332 ± 0.041 | 0.345 ± 0.015 | 0.513 ± 0.014
20 | LLLFLHSTLTCR | 0.49 ± 0.011 | 0.474 ± 0.056 | 0.543 ± 0.01 | 0.408 ± 0.035 | 0.618 ± 0.018 | 0.383 ± 0.011 | 0.411 ± 0.02 | 0.558 ± 0.022
21 | INILVIWRKNHV | 0.129 ± 0.048 | 0.463 ± 0.00091 | 0.671 ± 0.041 | 0.5213 ± 0.0049 | 0.662 ± 0.014 | 0.0744 ± 0.0074 | 0.0776 ± 0.024 | 0.114 ± 0.021
22 | FTRLDYKRIKIV | 0.102 ± 0.024 | 0.184 ± 0.18 | 0.625 ± 0.15 | 0.62 ± 0.017 | 0.768 ± 0.068 | 0.0655 ± 0.014 | 0.0685 ± 0.03 | 0.0698 ± 0.0013
23 | KLMGWFVGVVAR | 0.442 ± 0.015 | 0.494 ± 0.0073 | 0.49 ± 0.019 | 0.355 ± 0.025 | 0.535 ± 0.011 | 0.323 ± 0.0045 | 0.351 ± 0.039 | 0.517 ± 0.033
24 | PTFSPSLPPPRS | 0.3693 ± 0.0019 | 0.632 ± 0.03 | 0.715 ± 0.012 | 0.678 ± 0.027 | 0.703 ± 0.02 | 0.712 ± 0.027 | 0.694 ± 0.022 | 0.67608 ± 0.00018
25 | RISYKTKINELI | 0.434 ± 0.043 | 0.653 ± 0.038 | 0.735 ± 0.034 | 0.607 ± 0.034 | 0.737 ± 0.01 | 0.262 ± 0.0063 | 0.287 ± 0.052 | 0.5426 ± 0.003
26 | VLYCRSCFLRVS | 0.281 ± 0.021 | 0.543 ± 0.021 | 0.584 ± 0.015 | 0.436 ± 0.024 | 0.6292 ± 0.0028 | 0.1667 ± 0.0015 | 0.161 ± 0.0061 | 0.362 ± 0.023
27 | LWYVQILNIVLN | 0.328 ± 0.033 | 0.31 ± 0.018 | 0.388 ± 0.019 | 0.293 ± 0.048 | 0.4552 ± 0.0029 | 0.233 ± 0.024 | 0.249 ± 0.029 | 0.409 ± 0.013
28 | LHLTFRLAVLYY | 0.338 ± 0.032 | 0.3205 ± 0.002 | 0.355 ± 0.0097 | 0.293 ± 0.037 | 0.395 ± 0.03 | 0.317 ± 0.029 | 0.275 ± 0.021 | 0.371 ± 0.039
29 | GYVVYRRYILIR | 0.141 ± 0.0084 | 0.0341 ± 0.0027 | 0.0546 ± 0.03 | 0.111 ± 0.017 | 0.131 ± 0.026 | 0.219 ± 0.0094 | 0.0783 ± 0.012 | 0.0969 ± 0.011
30 | SVVVLHVHVRPP | 0.517 ± 0.12 | 0.618 ± 0.035 | 0.692 ± 0.018 | 0.5839 ± 0.0056 | 0.63 ± 0.011 | 0.593 ± 0.044 | 0.582 ± 0.024 | 0.6287 ± 0.0031
